From patent publication US20210206882A1 (AB STUDIO, published 2021) come the findings set out here.

The target of assay [1] is T1, CD20 (on CD20 positive Raji cells) (UniProt P11836 1-297, limits assumed).
T1 construct: whole, on cells; Raji is a human B cell line
T1 sequence (looked up): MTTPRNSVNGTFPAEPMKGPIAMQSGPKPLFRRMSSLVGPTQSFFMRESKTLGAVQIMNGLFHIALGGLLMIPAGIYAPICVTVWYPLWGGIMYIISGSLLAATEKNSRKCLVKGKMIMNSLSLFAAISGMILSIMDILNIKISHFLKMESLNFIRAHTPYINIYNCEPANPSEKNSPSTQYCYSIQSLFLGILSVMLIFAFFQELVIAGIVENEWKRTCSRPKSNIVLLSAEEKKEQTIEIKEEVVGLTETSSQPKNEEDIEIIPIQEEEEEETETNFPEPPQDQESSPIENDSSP
Nature of the assay: flow cytometry cell binding on CD20+ Raji cells, 3-fold titration 10 to 0.04 µg/ml and 0.

The target in a further assay is T2, CD55 (UniProt P08174 35-353, limits assumed).
T2 construct: In the internalization assay CD55 stood on MDA231 and SIHA cells
T2 sequence (looked up): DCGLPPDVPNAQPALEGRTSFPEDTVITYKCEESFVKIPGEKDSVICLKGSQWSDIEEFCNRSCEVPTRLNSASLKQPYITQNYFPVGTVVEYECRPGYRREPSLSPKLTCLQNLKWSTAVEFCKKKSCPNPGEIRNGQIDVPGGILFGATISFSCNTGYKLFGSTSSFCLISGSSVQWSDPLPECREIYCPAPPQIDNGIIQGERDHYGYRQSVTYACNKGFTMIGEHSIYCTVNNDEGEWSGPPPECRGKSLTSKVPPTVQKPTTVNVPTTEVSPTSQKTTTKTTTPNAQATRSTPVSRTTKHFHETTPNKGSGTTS
The assay is described as follows: flow cytometry cell binding on MDA231 cells (Cy3 goat anti-human IgG); antibody concentration not given.

The target of a further assay is PD-L1 (UniProt Q9NZQ7 19-290, limits assumed). Described as above.
PD-L1, sequence (Q9NZQ7 19-290 limits assumed): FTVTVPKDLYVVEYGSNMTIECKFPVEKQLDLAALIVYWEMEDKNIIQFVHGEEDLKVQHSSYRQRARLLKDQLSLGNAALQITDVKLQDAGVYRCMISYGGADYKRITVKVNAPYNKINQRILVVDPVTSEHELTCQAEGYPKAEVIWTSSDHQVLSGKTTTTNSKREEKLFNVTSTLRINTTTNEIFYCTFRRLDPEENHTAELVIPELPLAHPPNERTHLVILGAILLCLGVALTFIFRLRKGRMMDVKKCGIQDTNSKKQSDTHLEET

Numbering of substitutions follows the chain as printed. Names may count otherwise.

B1: parental anti-CD20 IgG (Rituximab) (antibody, V domains shown)
VH: QVQLQQPGAELVKPGASVKMSCKASGYTFTSYNMHWVKQTPGRGLEWIGAIYPGNGDTSYNQKFKGKATLTADKSSSTAYMQLSSLTSEDSAVYYCARSTYYGGDWYFNVWGAGTTVTVSA
VL: QIVLSQSPAILSASPGEKVTMTCRASSSVSYIHWFQQKPGSSPKPWIYATSNLASGVPVRFSGSGSGTSYSLTISRVEAEDAATYYCQQWTSNPPTFGGGTKLEIKR
notes: tested as IgG; also called Parental CD20; CD20 parental Ab
As for B1, the “EC50 (read off the curve)” value in assay [1] is about 0.2 µg/mL.

B2: parental anti-CD3 IgG (MAb 12F6) (antibody, V domains shown)
VH: QVQLQQSGAELARPGASVKMSCKASGYTFTSYTMHWVKQRPGQGLEWIGYINPSSGYTKYNQKFKDKATLTADKSSSTAYMQLSSLTSEDSAVYYCARWQDYDVYFDYWGQGTTLTVSS
VL: B1 VL with I32M, F35Y, V59A, T91S, I105T
notes: tested as IgG; also called Parental CD3; CD3 parental Ab
For B2, the binding result in assay [1] is “no binding (tested: 10 µg/ml)”.

B3: CD3 homodimer IgG containing the designed VH sequence (SEQ ID NO: 2) and the common VL sequence (SEQ ID NO: 3) (antibody, V domains shown)
VH: B2 VH with Q1E, Q6E, Q43E, Q82E, Q111E
VL: B1 VL
notes: Homodimer IgG with two VHb and two common VL; also called redesigned 12F6; antibody B
On to B3, for which the binding result in assay [1] was “no binding (tested: 10 µg/ml)”.

B4: CD20 homodimer IgG containing the designed VH sequence (SEQ ID NO: 1) and the common VL sequence (SEQ ID NO: 3) (antibody, V domains shown)
VH: B1 VH with T87R
VL: B1 VL
notes: Homodimer IgG with two VHa and two common VL; VHa is the Rituximab VH with T83R (Kabat); also called redesigned Rituximab; antibody A
In the case of B4, the concentration giving a half-maximal response (EC50 (read off the curve)) in assay [1] is about 0.4 µg/mL.

B5: parental anti-CD55 antibody (CD55 wt) (antibody, V domains shown)
VH: QVKLQESGGGLVQPGGSLKLSCAASGFTFSGYGMSWIRQTPDKRLEWVATINSGGSYTYYSDSVKGRFTISRDNVKNTLYLQMSSLKSEDTAMYYCARRNGTLYYYLMDYWGRGTLVTVSS
VL: QSVLTQPPSASGSPGQSVTISCTGTSSDVGGYNYVSWYQQHPGKAPKFMIYDVSKRPSGVSNRFSGSKSGNTASLTISGVQAEDEADYYCSSYTSASTVIFGGGTKLTVL
notes: The variable domains come from a published CD55 scFv; also called CD55 parental Ab; anti-CD55 parental monoclonal antibody
With B5, the binding result with CD55 is “binds”.

B6: Anti-PD-L1 homodimer IgG (PD-L1 v1) containing the designed VH sequence (SEQ ID NO: 4) and the common VL sequence (SEQ ID NO: 6) (antibody, V domains shown)
VH: EVQLLESGGGLVEPGGSLRLSCAASGFTFSSYIMMWVRQAPGKGLEWVSSIYPSGGITFYADTVKGRFTISRDNSKNTLYLQMNSLRAEDTAVYYCARIKLGTVTTVDYWGEGTLVTVSS
VL: QSALTQPASVSGSPGQSITISCTGTSSDVGGYNYVSWYQQHPGKAPKLMIYDVSKRPSGVSNRFSGSKSGNTASLTISGLQAEDEADYYCSSYTSASTRIFGGGTKVTVLR
notes: Homodimer IgG; The heavy chain constant region of the homodimer is not specified; also called PD-L1 mono-dimer IgG; PDL1 homodimer version 1
In the case of B6, in the assay with PD-L1, the binding result was “binds”.

B7: Anti-CD55 homodimer IgG (CD55 v1) containing the designed VH sequence (SEQ ID NO: 5) and the common VL sequence (SEQ ID NO: 6) (antibody, V domains shown)
VH: B5 VH with Q13K, D42G
VL: B6 VL
notes: Homodimer IgG; also called CD55 mono-dimer IgG; CD55 homodimer version 1
For the molecule B7, the binding result with CD55 is reported as “binds”.

Usually EC50 (read off the curve) stands for the concentration giving half of the maximal effect. A higher EC50 (read off the curve) goes with lower potency in that assay.
